From patent US20180362657A1 (University of California, published 2018) come the findings set out here.

In this test the target is T1, receptor tyrosine kinase-like orphan receptor 1 (ROR1) expressed on EW36 cells (human, UniProt Q01973 30-937).
T1 construct: whole, on cells; Endogenous ROR1 on viable EW36 human B-cell lymphoma cells; also called RORI
In words: flow cytometry on EW36 cells, culture supernatant, Alexa-488 goat anti-human IgG. How it is done:
Dual parameter flow cytometry was done in a FACSCalibur instrument (BD Biosciences; Immunocytometry Systems) using an anti-human 1gG that reacted with cell bound scFV of the invention (as shown in SEQ.ID.No: 3), but not the cells used in these experiments.
Propidium iodide was added to stain dead cells, which could then be excluded from the analysis. Following incubation with the culture supernatants, the cells were washed prior to analysis using a FACSCalibu™ (Becton Dickinson, Mountain View, Calif.). The data analyzed with FlowJo™ software (Tree Star, San Carlos, Calif.). A total of 20,000-gated events were collected for each sample in a list mode file, and data analysis was done using CellQuest™ software (BD Biosciences). The relative log florescence of the cells is depicted on the x-axis. Cells staining with the Alexa-488 conjugated goat antibody are shifted to the right. A histogram of control unstained cells or cells stained with the Alexa-488 conjugated goat antibody in the absence of the scFV are provided for comparison.

T1 sequence (Q01973 30-937): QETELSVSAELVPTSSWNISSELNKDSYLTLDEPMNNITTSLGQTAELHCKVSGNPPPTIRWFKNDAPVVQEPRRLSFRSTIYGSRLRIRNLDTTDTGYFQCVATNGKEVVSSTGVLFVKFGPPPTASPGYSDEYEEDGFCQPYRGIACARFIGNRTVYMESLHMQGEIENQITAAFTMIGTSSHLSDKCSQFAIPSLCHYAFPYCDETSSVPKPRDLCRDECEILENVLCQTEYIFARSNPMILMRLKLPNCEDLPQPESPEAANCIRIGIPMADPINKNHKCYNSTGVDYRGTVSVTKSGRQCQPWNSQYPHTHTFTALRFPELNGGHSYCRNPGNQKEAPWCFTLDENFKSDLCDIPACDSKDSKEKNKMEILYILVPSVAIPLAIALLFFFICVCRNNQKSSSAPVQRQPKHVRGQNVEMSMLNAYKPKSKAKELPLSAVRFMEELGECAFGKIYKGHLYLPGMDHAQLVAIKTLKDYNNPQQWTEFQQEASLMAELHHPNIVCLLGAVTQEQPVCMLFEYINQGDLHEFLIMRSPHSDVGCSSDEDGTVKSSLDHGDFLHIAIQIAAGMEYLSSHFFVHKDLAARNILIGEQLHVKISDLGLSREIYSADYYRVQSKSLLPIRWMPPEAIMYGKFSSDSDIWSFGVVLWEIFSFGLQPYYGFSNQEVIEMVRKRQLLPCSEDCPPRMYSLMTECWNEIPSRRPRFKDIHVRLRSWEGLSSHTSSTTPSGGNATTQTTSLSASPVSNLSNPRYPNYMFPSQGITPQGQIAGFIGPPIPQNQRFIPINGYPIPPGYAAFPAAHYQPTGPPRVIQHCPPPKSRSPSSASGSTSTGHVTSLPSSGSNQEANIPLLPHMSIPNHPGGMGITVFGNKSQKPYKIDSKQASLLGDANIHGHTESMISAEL

B1: pCDNA 3.1 CH2 CH3 stable scFV (anti-ROR1 mAb scFv fused to CH2 CH3) (Fc fusion)
scFv: DIKMTQSPSSMYASLGERVTITCKASPDINSYLSWFQQKPGKSPKTLIYRANRLVDGVPSRFSGGGSGQDYSLTINSLEYEDMGIYYCLQYDEFPYTFGGGTKLEMKGSTSGSGKPGSGEGSTKGEVKLVESGGGLVKPGGSLKLSCAASGFTFSSYAMSWVRQIPEKRLEWVASISRGGTTYYPDSVKGRFTISRDNVRNILYLQMSSLRSEDTAMYYCGRYDYDGYYAMDYWGQGTSVTVSS
notes: Tested as culture supernatants of stably transfected cell clones; All clones carry the same construct, so they are written as one molecule; also called scFV of the invention; not shown: CH2 CH3 domains (detected with anti-human IgG)
Consider B1, for which the binding result was “binds”.
